# Data taken from publication PMC11599015 (Viruses, 2024).
# Target: recombinant circular RABV N10-RNA complex purified from insect cells (phosphorylated) (rabies virus (RABV), UniProt Q8JXF6 1-450)
# Test: SPR
# Conditions: both partners purified
# recombinant circular RABV N10-RNA complex purified from insect cells (phosphorylated), sequence (Q8JXF6 whole entry, one chain of several): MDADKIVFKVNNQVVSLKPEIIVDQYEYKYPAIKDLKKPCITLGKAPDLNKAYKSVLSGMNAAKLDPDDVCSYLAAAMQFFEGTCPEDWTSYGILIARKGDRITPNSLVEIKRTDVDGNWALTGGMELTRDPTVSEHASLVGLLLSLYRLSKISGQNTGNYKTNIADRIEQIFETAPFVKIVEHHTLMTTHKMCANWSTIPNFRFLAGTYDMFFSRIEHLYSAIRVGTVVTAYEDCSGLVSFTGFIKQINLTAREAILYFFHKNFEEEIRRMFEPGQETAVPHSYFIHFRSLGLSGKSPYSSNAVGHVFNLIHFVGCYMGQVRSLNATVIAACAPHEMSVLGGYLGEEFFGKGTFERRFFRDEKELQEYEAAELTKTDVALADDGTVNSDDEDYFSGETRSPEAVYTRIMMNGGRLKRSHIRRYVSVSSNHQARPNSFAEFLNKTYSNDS
binder,measurement,value
C-terminal domain of RABV phosphoprotein P (PCTD) (domain or fragment) WSATNEEDDLSVEAEIAHQIAESFSKKYKFPSRSSGIFLYNFEQLKMNLDDIVKEAKNVPGVTRLAHDGSKIPLRCVLGWVALANSKKFQLLVEADKLSKIMQDDLNRYTSC,Kd,160 ± 20 nM
same,stoichiometry N,2 ± 0.2
